Holding throughout (conditions): remark: other sources report otherwise
Assay [1] concerns the target recombinant soluble homotrimeric HA, A/swine/Ontario/01911-2/99 H4N6 (Influenza A virus A/Swine/Ontario/01911-2/99 (H4N6)). The experiment in a line: microarray, transfection SN IgG, trimeric HA.
The target in assay [2] is recombinant soluble homotrimeric HA, A/Netherlands/219/03 H7N7 (Influenza A virus A/Netherlands/219/03(H7N7)). Put plainly: microarray, transfection SN IgG, trimeric HA.
Assay [3] concerns the target recombinant soluble homotrimeric HA of A/Japan/305/57 (H2N2) (Influenza A virus A/Japan/305/1957(H2N2)). The experiment in a line: trimeric HA microarray, transfection supernatant set 4.
For assay [4], the target named is recombinant soluble homotrimeric HA of A/chicken/Vietnam/NCVD-016/08 (H5N1) (Influenza A virus A/chicken/Vietnam/NCVD-016/2008(H5N1)). Described as above.

B1: TCN-553 (5261_C18) (antibody, V domains shown)
VH: QVQVVQSGTEVKKPGSSVKVSCQTSGGRFMSYAITWVRQAPGQGLEWMGGIVPVFGTANYAQKFQGRVTITTDDSTRTAYMELSSLRSEDTAVYYCGFRYGSGYGFDSWGQGTLVTVSS
VL: EIVLTQSPGTLSLSPGERATLSCRASQSVSSSYLAWYQKKPGQAPRLLIYGASTRATGIPDRFTGSGSGTDFTLSISRLEPEDFAVYYCQHFGTSVFTFGGGTKVEIK
For B1, the Trimeric HA Binding: RLU was determined as 12200 RLU in assay [1] and 7530 RLU in assay [2].

B2: TCN-550 (5096_F06) (antibody, V domains shown)
VH: QVQLQESGPGLVKPSETLSLTCTVSGASINSHYWSWIRQPPGKGLEWIGYVYYSGSTTYNPSLKSRVTLSVDTSKNQFSLNLSSVTAADTAFYYCARHPYDVLTGSGDWFDPWGQGTLVTVSS
VL: SYVLTQAPSVSVAPGQTARITCGGNAIGSKKVHWYQHKAGQAPVLVVYDDTDRPSGIPERFSGSNSWSTATLTINRVEAGDEADYYCQVWDFTIDHVVFGGGTKLTVL
As for B2, the Trimeric HA Binding: RLU came out at 1700 RLU in assay [1] and 3250 RLU in assay [2].

B3: TCN-557 (5081_A04) (antibody, V domains shown)
VH: QVQLVQSGAEVKKPGASVKVSCKASGHTFTGYYIHWVRQAPGQGLEWMGWINPDSGATSSAQNFQGRVTMTGDTSSSTAYMELSRLSFDDTAVYYCARVLFTSPFDFWGEGTLVTVSS
VL: QAVVTQEPSLAVSPGGTVTLTCGSSTGAVTRGHYPYWFQQKPGQAPRALIYDSAGNRHSWTPARFSGSLLGGKAALTLSGAQPEDEAEYYCLLSYSGVWVFGGGTKLTVL
On to B3, for which the Trimeric HA Binding: RLU in assay [1] was 41500 RLU; in assay [2], 53700 RLU.

B4: TCN-552 (5249_I23) (antibody, V domains shown)
VH: QVQVVQSGAEVKKPGSSVRVSCQASGGTFMNYAIIWVRRAPGQGLEWMGGIIPVFPTPNYAQMFQGRVTISTDESRSTSFLELTNLRYEDTAVYYCARRIYHGGNSGFDFWGQGTLVTVSS
VL: EIVLTQSPATLSLSPGERATLSCRASQSVGNYLAWYQQKPGQAPRLLIYDSSNRAPGIPARFSGSGSGTDFTLTISSLAPEDFAVYYCQQRSKWPPMYSFGHGTKLEIK
As to B4, the Trimeric HA Binding: RLU turned out to be 9080 RLU in assay [1] and 7420 RLU in assay [2].

B5: TCN-536 (5095_N01) (antibody, V domains shown)
VH: QVQLQQWGAGLLKPSETLSLTCAVYGGSFSVSGYYWSWIRQPPGRGLEWIGEISHGGSTNYNPSLKSRVTISVDTTKNQFSLRLSSVTAADTAVYYCARGTDPDTEVYCRVGNCAAFDYWGQGSLVTVSS
VL: EIILAQSPGTLSLSPGERATLSCRASQFVSTRSLAWYQQRPGQAPRLLIYGASSRATGIPDRFSGSGSGTDFTLTISRLEPEDFAVYYCQHYGYSPRYAFGQGSKVEIK
On to B5, for which the Trimeric HA Binding: RLU was found to be 260 RLU in assay [3] and 19 RLU in assay [4].

The values are drawn from patent US20150086555A1.
